From article PMC4383587, “The Evolutionary Origination and Diversification of a Dimorphic Gene Regulatory Network through Parallel Innovations in cis and trans”

B1: Motif 3 (t_MSE2 site S3, Probe 4) (dsDNA)
DNA 1: GAGAATTCAAGATCATAATATGTATACTAA
DNA 2: TTAGTATACATATTATGATCTTGAATTCTC
B2: Motif 5 (t_MSE2 site S5, Probe 6) (dsDNA)
DNA 1: TTTTTATTACTTCAACTATTCAAATTT
DNA 2: AAATTTGAATAGTTGAAGTAATAAAAA
B3: Motif 4 (t_MSE2 site S4, Probe 5) (dsDNA)
DNA 1: ATGTATACTAATTAGACAGTCTCTTTTTTT
DNA 2: AAAAAAAGAGACTGTCTAATTAGTATACAT

These binders were tested against GST-Abd-A DBD (Drosophila melanogaster, UniProt P29555-2 136-209) (assay: EMSA; 50 mM HEPES pH 7.9, 100 mM KCl, 1 mM DTT, 12.5 mM MgCl2, 0.05 mM EDTA, 17% glycerol, 400 ng/ul poly(dI-dC), 20 fmol probe, 0-3000 ng protein, 30 min on ice). Details: protein: recombinant; tags: N-terminal GST (pGEX4T1); label: 3' biotin on each strand; blunt.
GST-Abd-A DBD, sequence (P29555 396-469): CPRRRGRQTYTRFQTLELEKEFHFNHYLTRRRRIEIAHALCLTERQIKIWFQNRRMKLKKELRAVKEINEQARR

Binding result, binds:
B1
B2
B3
